The target in the assay is H3K9ac nucleosome with 147 bp DNA.

Take “G60A SIRT6 (from UniProt Q8N6T7 2-355) (enzyme)”: the Km for the nucleosome substrate in the Western blot-based deacylation assay is 0.088 µM.

Source of the values: publication PMC12051053.
